From the supplement of paper PMC11246515
± gives the standard deviation of the averaged measurements.

Test: total protein half-life in vivo (active degradation + dilution); higher = more stable protein
[1] = E. coli NCM3722 delta-clpP delta-lon delta-hslV, growth: N-lim chemostat, doubling time 6 h
[2] = E. coli NCM3722 delta-clpP, growth: N-lim chemostat, doubling time 6 h
[3] = E. coli NCM3722 delta-hslV, growth: N-lim chemostat, doubling time 6 h
[4] = E. coli NCM3722 delta-lon, growth: N-lim chemostat, doubling time 6 h
[5] = E. coli NCM3722 delta-smpB, growth: N-lim chemostat, doubling time 6 h
[6] = wild type E. coli NCM3722, growth: C-lim chemostat, doubling time 3 h
[7] = wild type E. coli NCM3722, growth: C-lim chemostat, doubling time 6 h
[8] = wild type E. coli NCM3722, growth: C-lim chemostat, doubling time 12 h
[9] = wild type E. coli NCM3722, growth: N-lim chemostat, doubling time 6 h
[10] = wild type E. coli NCM3722, growth: N-lim chemostat, doubling time 12 h
[11] = wild type E. coli NCM3722, growth: P-lim chemostat, doubling time 6 h
[12] = wild type E. coli NCM3722, growth: P-lim chemostat, doubling time 12 h

MLPDSSVRLNKYISESGICSRREADRYIEQGNVFLNGKRATIGDQVKPGDVVKVNGQLIEPREAEDLVLIALNKPVGIVSTTEDGERDNIVDFVNHSKRVFPIGRLDKDSQGLIFLTNHGDLVNKILRAGNDHEKEYLVTVDKPITEEFIRGMSAGVPILGTVTKKCKVKKEAPFVFRITLVQGLNRQIRRMCEHFGYEVKKLERTRIMNVSLSGIPLGEWRDLTDDELIDLFKLIENSSSEVKPKAKAKPKTAGIKRPVVKMEKTAEKGGRPASNGKRFTSPGRKKKGR
total protein half-life in vivo [1]: 6.01 ± 1.2 h
total protein half-life in vivo [2]: 3.751 ± 0.021 h
total protein half-life in vivo [3]: 3.44 ± 0.14 h
total protein half-life in vivo [4]: 5.61 ± 0.41 h
total protein half-life in vivo [5]: 3.43 ± 0.087 h
total protein half-life in vivo [6]: 2.2 ± 0.11 h
total protein half-life in vivo [7]: 4.11 ± 0.4 h
total protein half-life in vivo [8]: 5.93 ± 0.93 h
total protein half-life in vivo [9]: 3.29 ± 0.094 h
total protein half-life in vivo [10]: 5.37 ± 0.073 h
total protein half-life in vivo [11]: 2.59 ± 0.18 h
total protein half-life in vivo [12]: 5.07 ± 0.21 h

MLPFLKAPADAPLMTDKYEIDARYRYWRRHILLTIWLGYALFYFTRKSFNAAVPEILANGVLSRSDIGLLATLFYITYGVSKFVSGIVSDRSNARYFMGIGLIATGIINILFGFSTSLWAFAVLWVLNAFFQGWGSPVCARLLTAWYSRTERGGWWALWNTAHNVGGALIPIVMAAAALHYGWRAGMMIAGCMAIVVGIFLCWRLRDRPQALGLPAVGEWRHDALEIAQQQEGAGLTRKEILTKYVLLNPYIWLLSFCYVLVYVVRAAINDWGNLYMSETLGVDLVTANTAVTMFELGGFIGALVAGWGSDKLFNGNRGPMNLIFAAGILLSVGSLWLMPFASYVMQATCFFTIGFFVFGPQMLIGMAAAECSHKEAAGAATGFVGLFAYLGASLAGWPLAKVLDTWHWSGFFVVISIAAGISALLLLPFLNAQTPREA
total protein half-life in vivo [1]: 7.27 h
total protein half-life in vivo [2]: 6.56 ± 0.2 h
total protein half-life in vivo [3]: 5.26 h
total protein half-life in vivo [4]: 5.43 ± 0.18 h
total protein half-life in vivo [5]: 6.52 ± 0.92 h
total protein half-life in vivo [6]: 2.81 h
total protein half-life in vivo [7]: 6.04 h
total protein half-life in vivo [8]: 10.4 h
total protein half-life in vivo [9]: 5.01 ± 2.2 h
total protein half-life in vivo [10]: > 16 h
total protein half-life in vivo [12]: 10.6 ± 1.1 h

MLQFILRRLGLVIPTFIGITLLTFAFVHMIPGDPVMIMAGERGISPERHAQLLAELGLDKPMWQQYLHYIWGVMHGDLGISMKSRIPVWEEFVPRFQATLELGVCAMIFATAVGIPVGVLAAVKRGSIFDHTAVGLALTGYSMPIFWWGMMLIMLVSVHWNLTPVSGRVSDMVFLDDSNPLTGFMLIDTAIWGEDGNFIDAVAHMILPAIVLGTIPLAVIVRMTRSSMLEVLGEDYIRTARAKGLTRMRVIIVHALRNAMLPVVTVIGLQVGTLLAGAILTETIFSWPGLGRWLIDALQRRDYPVVQGGVLLVATMIILVNLLVDLLYGVVNPRIRHKK [P0AEF8]
total protein half-life in vivo [1]: 6.91 ± 0.36 h
total protein half-life in vivo [2]: 6.54 ± 1.1 h
total protein half-life in vivo [3]: 5.46 ± 0.53 h
total protein half-life in vivo [4]: 5.39 ± 0.46 h
total protein half-life in vivo [5]: 5.95 ± 0.45 h
total protein half-life in vivo [6]: 3.53 ± 0.4 h
total protein half-life in vivo [7]: 6.656 ± 0.039 h
total protein half-life in vivo [8]: 13.1 ± 1.5 h
total protein half-life in vivo [9]: 6.42 ± 0.19 h
total protein half-life in vivo [10]: 13 ± 3.1 h
total protein half-life in vivo [11]: 5.96 ± 0.41 h
total protein half-life in vivo [12]: 11.5 ± 1 h

MLQISHLYADYGGKPALEDINLTLESGELLVVLGPSGCGKTTLLNLIAGFVPYQHGSIQLAGKRIEGPGAERGVVFQNEGLLPWRNVQDNVAFGLQLAGIEKMQRLEIAHQMLKKVGLEGAEKRYIWQLSGGQRQRVGIARALAANPQLLLLDEPFGALDAFTRDQMQTLLLKLWQETGKQVLLITHDIEEAVFMATELVLLSSGPGRVLERLPLNFARRFVAGESSRSIKSDPQFIAMREYVLSRVFEQREAFS
total protein half-life in vivo [1]: 4.76 h

MLQIVGALILLIAGFAILRLLFRALISTASALAGLILLCLFGPALLAGYITERITRLFHIRWLAGVFLTIAGMIISFMWGLDGKHIALEAHTFDSVKFILTTALAGGLLAVPLQIKNIQQNGITPEDISKEINGYYCCFYTAFFLMACSACAPLIALQYDISPSLMWWGGLLYWLAALVTLLWAASQIQALKKLTCAISQTLEEQPVLNSKSWLTSLQNDYSLPDSLTERIWLTLISQRISRGELREFELADGNWLLNNAWYERNMAGFNEQLKENLSFTPDELKTLFRNRLNLSPEANDDFLDRCLDGGDWYPFSEGRRFVSFHHVDELRICASCGLTEVHHAPENHKPDPEWYCSSLCRETETLCQEIYERPYNSFISDATANGLILMKLPETWSTNEKMFASGGQGHGFAAERGNHIVDRVRLKNARILGDNNARNGADRLVSGTEIQTKYCSTAARSVGAAFDGQNGQYRYMGNNGPMQLEVPRDQYAGAVETMRNKIREGKVEER
total protein half-life in vivo [2]: 0.668 h
total protein half-life in vivo [10]: 0.674 h
total protein half-life in vivo [12]: 2.58 ± 0.79 h

MLQNIRIVLVETSHTGNMGSVARAMKTMGLTNLWLVNPLVKPDSQAIALAAGASDVIGNAHIVDTLDEALAGCSLVVGTSARSRTLPWPMLDPRECGLKSVAEAANTPVALVFGRERVGLTNEELQKCHYHVAIAANPEYSSLNLAMAVQVIAYEVRMAWLATQENGEQVEHEETPYPLVDDLERFYGHLEQTLLATGFIRENHPGQVMNKLRRLFTRARPESQELNILRGILASIEQQNKGNKAE [P0AE01]
total protein half-life in vivo [1]: 4.67 ± 0.57 h
total protein half-life in vivo [2]: 4.013 ± 0.028 h
total protein half-life in vivo [3]: 4.18 ± 0.18 h
total protein half-life in vivo [4]: 5.15 ± 0.92 h
total protein half-life in vivo [5]: 4.43 ± 0.4 h
total protein half-life in vivo [6]: 2.8 ± 0.32 h
total protein half-life in vivo [7]: 5.41 ± 0.56 h
total protein half-life in vivo [8]: 9.64 ± 0.46 h
total protein half-life in vivo [9]: 4.34 ± 0.23 h
total protein half-life in vivo [10]: 7.52 ± 0.47 h
total protein half-life in vivo [11]: 5.22 ± 0.042 h
total protein half-life in vivo [12]: 10.6 ± 0.77 h

MLQSNEYFSGKVKSIGFSSSSTGRASVGVMVEGEYTFSTAEPEEMTVISGALNVLLPDATDWQVYEAGSVFNVPGHSEFHLQVAEPTSYLCRYL [P0C037]
total protein half-life in vivo [1]: 5.23 ± 0.64 h
total protein half-life in vivo [2]: 3.8 ± 0.061 h
total protein half-life in vivo [3]: 3.59 ± 0.28 h
total protein half-life in vivo [4]: 4.706 ± 0.03 h
total protein half-life in vivo [5]: 3.46 ± 0.4 h
total protein half-life in vivo [6]: 2.75 ± 0.14 h
total protein half-life in vivo [7]: 5.02 ± 0.079 h
total protein half-life in vivo [8]: 9.73 ± 2.5 h
total protein half-life in vivo [9]: 3.78 ± 0.38 h
total protein half-life in vivo [10]: 5.6 h
total protein half-life in vivo [11]: 4.25 ± 0.35 h
total protein half-life in vivo [12]: 6.87 ± 0.11 h
